# *1 amine or outer side, *2 acyl side, *3 side chain or, on linkers, in order; H or OH if unused. Bridges are numbered along the chain shown (N, C = ends). Where no end group is shown, it is not given here. [ ]: non-standard residue; d: D form. TBMB = c1c(C[*:1])cc(C[*:3])cc1C[*:2]; NMeR = CN[C@@H](CCCNC(=N)N)C(=O)O; hArg = N=C(N)NCCCC[C@H](N)C(=O)O; Aze = O=C(O)[C@@H]1CCN1
# Molecular target: T1, rat plasma kallikrein (rat, UniProt P14272 391-638)
# T1 construct: domain: catalytic domain; Expressed and purified in house; also called rat kallikrein; rPK
# Assay: enzyme inhibition assay, fluorogenic substrate Z-PheArg-AMC
# Experimental: (§1) Functional enzyme assays were conducted in 10 mM Tris HCl, 150 mM NaCl, 10 mM MgCl₂, 1 mM CaCl₂ and 1 mg/mL BSA (all Sigma UK) pH 7.4 at 25° C. in solid black 96 or 384 well plates. […] Release of AMC was measured using a Pherastar FS (BMG Labtech), excitation 360 nm, emission 460 nm. The rate of the linear phase of the reaction, typically 5 to 45 minutes, was calculated in MARS data analysis software (BMG labtech). The rate was then used to calculate the IC₅₀ and Kᵢ in Prism (GraphPad). A four parameter inhibition non-linear regression equation was used to calculate the IC₅₀. The One site-fit Kᵢ equation used to calculate the Kᵢ, constraining the Kᵢ to the Kₘ for the substrate which is 150 μM for the human enzyme, and 200 μM for the rat orthologue. All Kᵢ/IC₅₀ values are the mean of at least two independent experiments, and at least three for peptides with Kᵢ values lower than 1 nM. For rabbit kallikrein, between 7 to 14 pM enzyme was employed, with 33 μM substrate with a Kₘ of 50 μM.
# T1 sequence (P14272 391-638 limits assumed): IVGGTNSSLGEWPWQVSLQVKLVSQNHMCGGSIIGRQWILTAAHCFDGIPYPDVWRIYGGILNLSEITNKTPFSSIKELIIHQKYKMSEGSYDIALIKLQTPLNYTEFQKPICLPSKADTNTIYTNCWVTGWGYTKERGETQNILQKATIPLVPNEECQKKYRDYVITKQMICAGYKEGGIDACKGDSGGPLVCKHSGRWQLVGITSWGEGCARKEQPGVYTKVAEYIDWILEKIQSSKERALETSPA
row,Binder,Ki
1,"ACKNYWNPCDLIETTCA-NH2 (linker 2-9-16 via TBMB; N-terminus assumed; SMILES CC[C@H](C)[C@@H]1NC(=O)[C@H](CC(C)C)NC(=O)[C@H](CC(=O)O)NC(=O)[C@@H]2CSCc3cc(cc(c3)CSC[C@@H](C(=O)N[C@@H](C)C(N)=O)NC(=O)[C@H]([C@@H](C)O)NC(=O)[C@H]([C@@H](C)O)NC(=O)[C@H](CCC(=O)O)NC1=O)CSC[C@H](NC(=O)[C@H](C)N)C(=O)N[C@@H](CCCCN)C(=O)N[C@@H](CC(N)=O)C(=O)N[C@@H](Cc1ccc(O)cc1)C(=O)N[C@@H](Cc1c[nH]c3ccccc13)C(=O)N[C@@H](CC(N)=O)C(=O)N1CCC[C@H]1C(=O)N2, Synthetic bicyclic peptide, 6 x 6, made on Rink amide resin) [06-254-01]",15.9 nM

# Molecular target: T2, human plasma kallikrein (human, UniProt P03952 20-638)
# T2 construct: Enzyme used in the Ki assays; also called human kallikrein; PK
# Assay: as above
# Experimental: as §1
# T2 sequence (P03952 20-638 limits assumed): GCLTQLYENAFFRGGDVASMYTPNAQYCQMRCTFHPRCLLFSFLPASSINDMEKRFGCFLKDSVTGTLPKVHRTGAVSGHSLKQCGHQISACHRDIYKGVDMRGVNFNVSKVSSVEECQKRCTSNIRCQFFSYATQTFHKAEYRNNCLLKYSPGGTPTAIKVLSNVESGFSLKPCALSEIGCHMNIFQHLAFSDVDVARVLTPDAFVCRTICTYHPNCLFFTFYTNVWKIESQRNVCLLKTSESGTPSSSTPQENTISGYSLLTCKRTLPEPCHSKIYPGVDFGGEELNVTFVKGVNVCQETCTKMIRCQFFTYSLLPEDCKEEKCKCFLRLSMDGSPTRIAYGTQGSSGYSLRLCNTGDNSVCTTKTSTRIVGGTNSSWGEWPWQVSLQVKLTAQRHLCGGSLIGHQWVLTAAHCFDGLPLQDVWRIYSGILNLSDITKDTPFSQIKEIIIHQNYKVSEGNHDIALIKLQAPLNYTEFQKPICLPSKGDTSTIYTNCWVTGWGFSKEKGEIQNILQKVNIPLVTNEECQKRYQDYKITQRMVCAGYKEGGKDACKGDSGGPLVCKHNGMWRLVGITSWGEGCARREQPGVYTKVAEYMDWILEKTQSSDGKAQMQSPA
row,Binder,Ki
1,"ACKNYWNPCDLIETTCA-NH2 (linker 2-9-16 via TBMB; N-terminus assumed; SMILES CC[C@H](C)[C@@H]1NC(=O)[C@H](CC(C)C)NC(=O)[C@H](CC(=O)O)NC(=O)[C@@H]2CSCc3cc(cc(c3)CSC[C@@H](C(=O)N[C@@H](C)C(N)=O)NC(=O)[C@H]([C@@H](C)O)NC(=O)[C@H]([C@@H](C)O)NC(=O)[C@H](CCC(=O)O)NC1=O)CSC[C@H](NC(=O)[C@H](C)N)C(=O)N[C@@H](CCCCN)C(=O)N[C@@H](CC(N)=O)C(=O)N[C@@H](Cc1ccc(O)cc1)C(=O)N[C@@H](Cc1c[nH]c3ccccc13)C(=O)N[C@@H](CC(N)=O)C(=O)N1CCC[C@H]1C(=O)N2, Synthetic bicyclic peptide, 6 x 6, made on Rink amide resin) [06-254-01]",1 nM

# Molecular target: T1, rat plasma kallikrein
# Assay: as above
# Remark: another data set of the same source
# Experimental: as §1
row,Binder,Ki
1,"Ac-CSF[Aze]Y[hArg]CVYYPDIC-NH2 (linker 1-7-14 via TBMB, Synthetic bicyclic peptide, 5 x 6, made on Rink amide resin) [Ac-(06-550) Aze3 HArg5]",5.6 nM
2,"Ac-CNTWNPWCPWDAPLC-NH2 (linker 1-8-15 via TBMB, Synthetic bicyclic peptide without the terminal alanines, made on Rink amide resin) [Ac-(06-259-02)]",3.8 nM
3,"Ac-CSFPY[hArg]CVYYPDIC-NH2 (linker 1-7-14 via TBMB, Synthetic bicyclic peptide, 5 x 6, made on Rink amide resin) [Ac-(06-550) HArg5]",25 nM

# Molecular target: T2, human plasma kallikrein
# Assay: as above
# Remark: another data set of the same source
# Experimental: as §1
row,Binder,Ki
1,"Ac-CSFPY[NMeR]CVYYPDIC-NH2 (linker 1-7-14 via TBMB, Synthetic bicyclic peptide, 5 x 6, made on Rink amide resin) [Ac-(06-550) NMe-Arg5]",2.66 nM
2,"Ac-CSF[Aze]Y[hArg]CVYYPDIC-NH2 (linker 1-7-14 via TBMB, Synthetic bicyclic peptide, 5 x 6, made on Rink amide resin) [Ac-(06-550) Aze3 HArg5]",0.5 nM
3,"Ac-CNTWNPWCPWDAPLC-NH2 (linker 1-8-15 via TBMB, Synthetic bicyclic peptide without the terminal alanines, made on Rink amide resin) [Ac-(06-259-02)]",5.9 nM
4,"Ac-CSF[Aze]Y[NMeR]CVYYPDIC-NH2 (linker 1-7-14 via TBMB, Synthetic bicyclic peptide, 5 x 6, made on Rink amide resin) [Ac-(06-550) Aze3 NMe-Arg5]",53 nM
5,"Ac-CSFPY[hArg]CVYYPDIC-NH2 (linker 1-7-14 via TBMB, Synthetic bicyclic peptide, 5 x 6, made on Rink amide resin) [Ac-(06-550) HArg5]",1.8 nM

# Molecular target: T3, biotinylated human plasma kallikrein (human, UniProt P03952 20-638, biotinylated (sites not given))
# T3 construct: mature; also called biotinylated hPK; biotinylated human kallikrein
# Assay: homogeneous plate-based binding assay, TBMB-cyclised phage on biotinylated human plasma kallikrein
# Experimental: Assay of binding of individual clones: Library transformant colonies, or selection output colonies, were picked and grown as individual cultures in 2TY broth containing selective antibiotic. The picked colonies were DNA-sequenced using a QIAgen PyroMark Q96 DNA sequencer to reveal the amino-acid substitution present in each clone, and were assayed for human plasma kallikrein binding as follows. The phage-containing supernatant was harvested from the culture and phage were cyclised with tris-bromomethylbenzene (TBMB) based on the methods of Heinis et al (Nature Chemical Biology vol. 5 pp 502-507 (2009)). The purified phage from this process were assayed for binding to biotinylated human plasma kallikrein using a homogeneous plate-based binding assay; assay read-out measured on a BMG Labtech Pherastar FS plate reader. The quantitative binding data from duplicate assay samples was averaged (mean) and expressed as signal:background. Assay data shown is representative of at least 2 independent experiments. The assay data was correlated with the peptide sequences.
# T3 sequence (P03952 20-638 limits assumed): as above
row,Binder,S:B (signal:background)
1,CKNYWNPCDLVEAQC (linker 1-8-15 via TBMB) [06-254-G4],33.1
2,CKNYWNPCDLLGIAC (linker 1-8-15 via TBMB) [06-254-B9],38
3,CKNYWNPCDLIQDAC (linker 1-8-15 via TBMB) [06-254-F4],46.4
4,CKNYWNPCDLLESTC (linker 1-8-15 via TBMB) [06-254-E5],29.7
5,CKNYWNPCDLVHDIC (linker 1-8-15 via TBMB) [06-254-E3],30.2
6,CKNYWNPCDLIPGPC (linker 1-8-15 via TBMB) [06-254-02 (phage clone)],46.6
7,CKNYWNPCDLIETTC (linker 1-8-15 via TBMB) [06-254-01 (phage clone)],61.9
8,CKNYWNPCDLIPDLC (linker 1-8-15 via TBMB) [06-254-F5],38.7
9,CKNYWNPCDLIPDMC (linker 1-8-15 via TBMB) [06-254-D6],24.4
10,CKNYWNPCDLLPDLC (linker 1-8-15 via TBMB) [06-254-B1],9.99
11,CKNYWNPCDLIADLC (linker 1-8-15 via TBMB) [06-254-H3],25.2
12,CKNYWNPCDLVMDTC (linker 1-8-15 via TBMB) [06-254-03 (phage clone)],56.7
13,CKNYWNPCDLIWTDC (linker 1-8-15 via TBMB) [06-254-E2],31.4
14,CNHWNPWCPADIPVC (linker 1-8-15 via TBMB) [06-259-E2],37.7
15,CKNYWNPCDLVQIHC (linker 1-8-15 via TBMB) [06-254-H4],38.9
16,CNHWNPWCSSDPPVC (linker 1-8-15 via TBMB) [06-259-H4],33.6
17,CNTWNPWCPWDAPLC (linker 1-8-15 via TBMB) [06-259-02 (phage clone)],43.5

row,Binder,S:B (signal:background)
1,CKNYWNPCDLISIKC (linker 1-8-15 via TBMB) [06-254-B3],61.6
2,CKNYWNPCDLIPTGC (linker 1-8-15 via TBMB) [06-254-G3],37.5
3,CKNYWNPCDLIRPPC (linker 1-8-15 via TBMB) [06-254-D1],33.6
4,"CNTWNPWCGWVGGFC (linker 1-8-15 via TBMB, also called 06-259 (phage clone)) [06-259 (parent)]",1.17
5,CNYWNPWCSDTRIGC (linker 1-8-15 via TBMB) [06-259-A6],22.6
6,CKNYWNPCDLIGITC (linker 1-8-15 via TBMB) [06-254-G2],46.3
7,CKNYWNPCDLVDTFC (linker 1-8-15 via TBMB) [06-254-A4],32.4
8,"CKNYWNPCDLVTISC (linker 1-8-15 via TBMB, also called 06-254 (phage clone)) [06-254 parent]",23.5
9,CKNFWNPCDLIPISC (linker 1-8-15 via TBMB) [06-254-D3],20.3
10,CNHWNPWCSVEPPVC (linker 1-8-15 via TBMB) [06-259-01 (phage clone)],51.7
11,CKNYWNPCDLIAPYC (linker 1-8-15 via TBMB) [06-254-C1],27.4
12,CNHWNPWCSADPPIC (linker 1-8-15 via TBMB) [06-259-03 (phage clone)],49.8
13,CNHWNPWCSADPPRC (linker 1-8-15 via TBMB) [06-259-F1],38
14,CNTWNPWCSWPDIDC (linker 1-8-15 via TBMB) [06-259-F2],22.7
15,CNHWNPWCSDDPYIC (linker 1-8-15 via TBMB) [06-259-H3],38.7
16,CKNYWNPCGLVYSTC (linker 1-8-15 via TBMB) [06-254-E6],23.5
17,CKNYWNPCDLLHVRC (linker 1-8-15 via TBMB) [06-254-A7],26.1
